From publication PMC9450138 (Redox Biology, 2022) come the findings set out here.

For this assay, the target named is T1, Alexa Fluor 546 labelled PRDX1 (UniProt Q06830 1-199, Alexa Fluor 546 label (site not stated)).
T1 sequence (looked up): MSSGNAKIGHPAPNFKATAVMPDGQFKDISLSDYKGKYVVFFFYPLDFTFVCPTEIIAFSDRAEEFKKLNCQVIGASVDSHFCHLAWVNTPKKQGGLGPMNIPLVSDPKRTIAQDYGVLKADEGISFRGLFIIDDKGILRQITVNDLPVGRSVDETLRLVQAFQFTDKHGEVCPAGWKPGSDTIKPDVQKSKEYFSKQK
As to the kind of experiment: other fluorescence titration.

B1: RAD51 labelled with the QSY 35 quencher (natural protein, UniProt Q06609 1-339, looked up)
chain: MAMQMQLEANADTSVEEESFGPQPISRLEQCGINANDVKKLEEAGFHTVEAVAYAPKKELINIKGISEAKADKILAEAAKLVPMGFTTATEFHQRRSEIIQITTGSKELDKLLQGGIETGSITEMFGEFRTGKTQICHTLAVTCQLPIDRGGGEGKAMYIDTEGTFRPERLLAVAERYGLSGSDVLDNVAYARAFNTDHQTQLLYQASAMMVESRYALLIVDSATALYRTDYSGRGELSARQMHLARFLRMLLRLADEFGVAVVITNQVVAQVDGAAMFAADPKKPIGGNIIAHASTTRLYLRKGRGETRICKIYDSPCLPEAEAMFAINADGVGDAKD
modifications: QSY 35 quencher label (site not stated)
Regarding B1, the “apparent KD (first of two)” value is 140 nM and the “apparent KD (second of two)” value stood at 610 nM.
